This assay deals with acetylcholine receptor. Nature of the assay: SPR, AchR immobilised on CM5 chip, peptide 10 uM.

The source of these data is patent publication US20250011363A1, “OPTIMIZED SHORTENED PEPTIDE THAT BINDS TO ACETYLCHOLINE RECEPTOR, AND USE THEREOF” (SKINMED CO., LTD., priority 2021, published 2025).

B1: 6mer-1-1048 (peptide)
peptide: RRCMMK
As for B1, the Binding affinity (RU) turned out to be 36 RU.

B2: 6mer-1-1026 (peptide)
peptide: RKKCER
Turning to B2, the Binding affinity (RU) came to 30 RU.

B3: 6mer-2-631 (peptide)
peptide: KYCMKR
B3 came in with a Binding affinity (RU) of 16 RU.

B4: 6mer-2-612 (peptide)
peptide: RDCVRK
For B4, the Binding affinity (RU) was 17 RU.

B5: 6mer-1-1064 (peptide)
peptide: RKPTAK
B5: the Binding affinity (RU) amounted to 41 RU.

B6: 6mer-1-1053 (peptide)
peptide: RKYTPK
B6: the Binding affinity (RU) turned out to be 27 RU.

B7: 6mer-1-1027 (peptide)
peptide: KKPWHK
In the case of B7, the Binding affinity (RU) turned out to be 22 RU.

B8: 6mer-1-1025 (peptide)
peptide: KRFAKR
Take B8: the Binding affinity (RU) was determined as 33 RU.

B9: 6mer-1-1033 (peptide)
peptide: KRHMVK
Molecule B9 came in with a Binding affinity (RU) of 30 RU.

B10: 6mer-1-1029 (peptide)
peptide: RRCMAK
As to B10, the Binding affinity (RU) was found to be 40 RU.

B11: 6mer-1-1036 (peptide)
peptide: KKITFR
In the case of B11, the Binding affinity (RU) was 21 RU.

B12: 6mer-1-1045 (peptide)
peptide: KKTPGR
B12 gave a Binding affinity (RU) of 27 RU.

B13: 6mer-2-624 (peptide)
peptide: KPPIRK
Turning to B13, the Binding affinity (RU) was found to be 33 RU.

B14: 6mer-2-606 (peptide)
peptide: RKPFRR
For the molecule B14, the Binding affinity (RU) turned out to be 15 RU.

B15: 6mer-2-617 (peptide)
peptide: RCNGRR
B15 displayed a Binding affinity (RU) of 32 RU.

B16: 6mer-1-1028 (peptide)
peptide: RRHCWR
Consider B16, for which the Binding affinity (RU) stood at 36 RU.

B17: 6mer-1-1041 (peptide)
peptide: RKEHGK
B17 had a Binding affinity (RU) of 23 RU.

B18: 6mer-1-1049 (peptide)
peptide: KKDHKK
With B18, the Binding affinity (RU) was found to be 31 RU.

B19: 6mer-2-608 (peptide)
peptide: RCNHKK
As for B19, the Binding affinity (RU) came out at 32 RU.

B20: 6mer-2-614 (peptide)
peptide: KAWIRR
The molecule B20 registered a Binding affinity (RU) of 19 RU.

B21: 6mer-1-1035 (peptide)
peptide: RRCHHR
In the case of B21, the Binding affinity (RU) came out at 34 RU.

B22: 6mer-1-1056 (peptide)
peptide: RRNTAK
B22: the Binding affinity (RU) stood at 27 RU.

B23: 6mer-2-630 (peptide)
peptide: RYAFRR
Consider B23, for which the Binding affinity (RU) was determined as 27 RU.

B24: 6mer-2-625 (peptide)
peptide: RFPDKK
As to B24, the Binding affinity (RU) turned out to be 33 RU.

B25: 6mer-1-1059 (peptide)
peptide: RRETVK
Molecule B25 had a Binding affinity (RU) of 39 RU.

B26: 6mer-2-621 (peptide)
peptide: RHEPKR
In turn, B26 returned a Binding affinity (RU) of 32 RU.

B27: 6mer-1-1046 (peptide)
peptide: RKDPHR
B27 had a Binding affinity (RU) of 38 RU.

B28: 6mer-1-1058 (peptide)
peptide: KRFPWR
Molecule B28 gave a Binding affinity (RU) of 21 RU.

B29: 6mer-2-605 (peptide)
peptide: KNCGKK
Regarding B29, the Binding affinity (RU) is 17 RU.

B30: 6mer-2-601 (peptide)
peptide: KNSHKK
In turn, B30 had a Binding affinity (RU) of 25 RU.

B31: 6mer-2-626 (peptide)
peptide: KNSEKK
In the case of B31, the Binding affinity (RU) amounted to 33 RU.

B32: 6mer-2-609 (peptide)
peptide: RDSDRR
B32 had a Binding affinity (RU) of 24 RU.

B33: 6mer-1-1038 (peptide)
peptide: RRKKIR
Turning to B33, the Binding affinity (RU) worked out at 21 RU.

B34: 6mer-2-603 (peptide)
peptide: KFHARR
Regarding B34, the Binding affinity (RU) came out at 32 RU.

B35: 6mer-1-1061 (peptide)
peptide: RRISIR
The molecule B35 came in with a Binding affinity (RU) of 41 RU.

B36: 6mer-2-620 (peptide)
peptide: RHTGRR
As to B36, the Binding affinity (RU) stood at 33 RU.

B37: 6mer-1-1054 (peptide)
peptide: RRMKVK
For the molecule B37, the Binding affinity (RU) came to 37 RU.

B38: 6mer-1-1039 (peptide)
peptide: KRADIK
B38 registered a Binding affinity (RU) of 40 RU.

B39: 6mer-1-1030 (peptide)
peptide: KKFCFR
Molecule B39 yielded a Binding affinity (RU) of 30 RU.

B40: 6mer-2-615 (peptide)
peptide: KDNGRK
Turning to B40, the Binding affinity (RU) was 27 RU.

B41: 6mer-1-1031 (peptide)
peptide: RKDTHK
For the molecule B41, the Binding affinity (RU) was found to be 38 RU.

B42: 6mer-1-1044 (peptide)
peptide: KKHHIR
As for B42, the Binding affinity (RU) worked out at 24 RU.

B43: 6mer-2-607 (peptide)
peptide: KKWVKR
B43 registered a Binding affinity (RU) of 31 RU.

B44: 6mer-2-619 (peptide)
peptide: RPPDRR
Molecule B44 came in with a Binding affinity (RU) of 26 RU.

B45: 6mer-2-628 (peptide)
peptide: RKSFKR
As for B45, the Binding affinity (RU) amounted to 30 RU.

B46: 6mer-2-602 (peptide)
peptide: RNTPKR
For the molecule B46, the Binding affinity (RU) worked out at 24 RU.

B47: 6mer-1-1034 (peptide)
peptide: KKASDR
For B47, the Binding affinity (RU) was 24 RU.

B48: 6mer-1-1050 (peptide)
peptide: KKMEDR
On to B48, for which the Binding affinity (RU) is 38 RU.

B49: 6mer-1-1043 (peptide)
peptide: KRAAHR
For the molecule B49, the Binding affinity (RU) was determined as 30 RU.

B50: 6mer-2-622 (peptide)
peptide: RYTNKR
The molecule B50 showed a Binding affinity (RU) of 13 RU.

B51: 6mer-1-1032 (peptide)
peptide: KKTSMR
B51 returned a Binding affinity (RU) of 27 RU.

B52: 6mer-1-1042 (peptide)
peptide: KKITAR
In turn, B52 returned a Binding affinity (RU) of 40 RU.

B53: 6mer-2-611 (peptide)
peptide: RIKMRR
B53 gave a Binding affinity (RU) of 22 RU.

B54: 6mer-1-1055 (peptide)
peptide: KRCNDK
In the case of B54, the Binding affinity (RU) is 40 RU.

B55: 6mer-2-613 (peptide)
peptide: KAANRR
For the molecule B55, the Binding affinity (RU) was determined as 18 RU.

B56: 6mer-1-1051 (peptide)
peptide: KKKSFK
With B56, the Binding affinity (RU) amounted to 43 RU.

B57: 6mer-2-627 (peptide)
peptide: KKTARR
B57 showed a Binding affinity (RU) of 33 RU.

B58: 6mer-2-616 (peptide)
peptide: REPHRK
The molecule B58 yielded a Binding affinity (RU) of 26 RU.

B59: 6mer-1-1037 (peptide)
peptide: RRKNNR
For the molecule B59, the Binding affinity (RU) came to 36 RU.

B60: 6mer-1-1062 (peptide)
peptide: RRICMR
The molecule B60 returned a Binding affinity (RU) of 27 RU.

B61: 6mer-1-1047 (peptide)
peptide: RKATDK
Consider B61, for which the Binding affinity (RU) amounted to 30 RU.

B62: 6mer-2-618 (peptide)
peptide: KHHKKR
As to B62, the Binding affinity (RU) was found to be 12 RU.

B63: 6mer-2-610 (peptide)
peptide: RKNPKR
B63 yielded a Binding affinity (RU) of 32 RU.

B64: 6mer-1-1060 (peptide)
peptide: KRYNVR
As to B64, the Binding affinity (RU) was found to be 21 RU.

B65: 6mer-1-1063 (peptide)
peptide: KKIDHK
Molecule B65 yielded a Binding affinity (RU) of 25 RU.

B66: 6mer-2-623 (peptide)
peptide: KHAHRR
Molecule B66 registered a Binding affinity (RU) of 13 RU.

B67: 6mer-1-1057 (peptide)
peptide: KRKPVR
B67 yielded a Binding affinity (RU) of 43 RU.

B68: 6mer-1-1040 (peptide)
peptide: KRIEFR
B68 had a Binding affinity (RU) of 28 RU.

B69: 6mer-1-1052 (peptide)
peptide: KRHWIR
The molecule B69 had a Binding affinity (RU) of 33 RU.

B70: 6mer-2-604 (peptide)
peptide: KEPIRK
B70 had a Binding affinity (RU) of 16 RU.

B71: 6mer-2-629 (peptide)
peptide: RFCWKK
For B71, the Binding affinity (RU) is 32 RU.
